Measurements as given in patent publication US20240392004A1 (IMMUNOWAKE, published 2024).

T1: human IL-2 receptor (IL-2Rα, IL-2Rβ, IL-2Rγ) (human, UniProt P01589 22-272; P14784 27-551; P31785 23-369)
T1 sequence (looked up) 1: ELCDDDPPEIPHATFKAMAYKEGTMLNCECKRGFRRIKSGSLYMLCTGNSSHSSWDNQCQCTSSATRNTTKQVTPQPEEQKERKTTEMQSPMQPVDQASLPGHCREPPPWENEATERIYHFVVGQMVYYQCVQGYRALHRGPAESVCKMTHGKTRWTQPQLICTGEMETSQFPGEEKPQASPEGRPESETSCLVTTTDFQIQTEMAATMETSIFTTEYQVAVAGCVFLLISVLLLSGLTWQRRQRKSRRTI
T1 sequence (looked up) 2: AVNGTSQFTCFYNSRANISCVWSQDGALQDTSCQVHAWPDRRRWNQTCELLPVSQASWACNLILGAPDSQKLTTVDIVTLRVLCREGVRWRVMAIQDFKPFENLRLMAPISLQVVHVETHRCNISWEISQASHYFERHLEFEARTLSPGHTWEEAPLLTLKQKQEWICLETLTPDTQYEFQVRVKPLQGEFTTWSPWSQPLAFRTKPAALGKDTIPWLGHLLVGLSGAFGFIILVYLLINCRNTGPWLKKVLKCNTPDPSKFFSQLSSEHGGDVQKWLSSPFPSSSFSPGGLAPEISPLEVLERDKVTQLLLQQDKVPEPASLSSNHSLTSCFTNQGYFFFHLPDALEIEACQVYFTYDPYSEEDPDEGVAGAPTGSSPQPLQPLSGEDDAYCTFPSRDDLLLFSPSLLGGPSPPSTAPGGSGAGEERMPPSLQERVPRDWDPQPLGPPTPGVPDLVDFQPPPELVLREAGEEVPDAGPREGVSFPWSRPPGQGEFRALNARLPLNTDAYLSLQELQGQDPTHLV
T1 sequence (looked up) 3: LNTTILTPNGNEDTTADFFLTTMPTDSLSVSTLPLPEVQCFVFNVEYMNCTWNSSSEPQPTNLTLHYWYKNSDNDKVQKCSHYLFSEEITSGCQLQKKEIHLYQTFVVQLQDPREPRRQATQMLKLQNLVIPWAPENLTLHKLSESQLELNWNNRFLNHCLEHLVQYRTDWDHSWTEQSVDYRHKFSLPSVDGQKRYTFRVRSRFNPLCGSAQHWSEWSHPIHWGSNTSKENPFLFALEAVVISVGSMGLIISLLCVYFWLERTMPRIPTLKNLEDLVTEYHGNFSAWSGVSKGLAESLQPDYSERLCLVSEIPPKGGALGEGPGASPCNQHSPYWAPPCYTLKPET

T2: mouse PD-1 (mouse, UniProt Q02242 25-167, limits assumed)
T2 construct: also called mPD-1
T2 sequence (looked up): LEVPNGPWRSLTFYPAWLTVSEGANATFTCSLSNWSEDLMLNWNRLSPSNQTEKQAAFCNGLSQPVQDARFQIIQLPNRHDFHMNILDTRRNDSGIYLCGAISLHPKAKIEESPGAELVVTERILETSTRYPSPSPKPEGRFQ

B1: IL-12(E59A/F60A)/PD-L1(mut2)-Fc (IL-12 at hinge) (Fc fusion)
chain 1: FTVTVPKDLYVVEYGSNMTIECKFPVEKQLDLAALQVYWMMEDKNIIQFVHGEEDLKVQHSSYRQRARLLKDQLSLGNAALQITDVKLQDAGVYTCLIAYKGADYKRITVKVNAPYNKINQRILVVDPVTSEHELTCQAEGYPKAEVIWTSSDHQVLSGKTTTTNSKREEKLFNVTSTLRINTTTNEIFYCTFRRLDPEENHTAELVIPELPLAHPPNERGGGGSGGGIWELKKDVYVVELDWYPDAPGEMVVLTCDTPEEDGITWTLDQSSEVLGSGKTLTIQVKAAGDAGQYTCHKGGEVLSHSLLLLHKKEDGIWSTDILKDQKEPKNKTFLRCEAKNYSGRFTCWWLTTISTDLTFSVKSSRGSSDPQGVTCGAATLSAERVRGDNKEYEYSVECQEDSACPAAEESLPIEVMVDAVHKLKYENYTSSFFIRDIIKPDPPKNLQLKPLKNSRQVEVSWEYPDTWSTPHSYFSLTFCVQVQGKSKREKKDRVFTDKTSATVICRKNASISVRAQDRYYSSSWSEWASVPCSGGGGSGGGSGGGGSRNLPVATPDPGMFPCLHHSQNLLRAVSNMLQKARQTLEFYPCTSEEIDHEDITKDKTSTVEACLPLELTKNESCLNSRETSFITNGSCLASRKTSFMMALCLSSIYEDLKMYQVEFKTMNAKLLMDPKRQIFLDQNMLAVIDELMQALNFNSETVPQKSSLEEPDFYKTKIKLCILLHAFRIRAVTIDRVMSYLNASGGGGSGGGDKTHTCPPCPAPEDEGGPSVFLFPPKPKDTLMISRTPEVTCVVVDVSHEDPEVKFNWYVDGVEVHNAKTKPREEQYNSTYRVVSVLTVLHQDWLNGKEYKCKVSNKALPAPIEKTISKAKGQPREPQVYVYPPSREEMTKNQVSLTCLVKGFYPSDIAVEWESNGQPENNYKTTPPVLDEDGSFALVSKLTVDKSRWQQGNVFSCSVMHEALHNHYTQKSLSLSPGK
chain 2: FTVTVPKDLYVVEYGSNMTIECKFPVEKQLDLAALQVYWMMEDKNIIQFVHGEEDLKVQHSSYRQRARLLKDQLSLGNAALQITDVKLQDAGVYTCLIAYKGADYKRITVKVNAPYNKINQRILVVDPVTSEHELTCQAEGYPKAEVIWTSSDHQVLSGKTTTTNSKREEKLFNVTSTLRINTTTNEIFYCTFRRLDPEENHTAELVIPELPLAHPPNERGGGGSGGGDKTHTCPPCPAPEKKGGPSVFLFPPKPKDTLMISRTPEVTCVVVDVSHEDPEVKFNWYVDGVEVHNAKTKPREEQYNSTYRVVSVLTVLHQDWLNGKEYKCKVSNKALPAPIEKTISKAKGQPREPQVYVLPPSREEMTKNQVSLLCLVKGFYPSDIAVEWESNGQPENRYMTWPPVLDSDGSFFLYSKLTVDKSRWQQGNVFSCSVMHEALHNHYTQKSLSLSPGK
notes: also called IL-12(E59A/F60A)/PD-L1(I54Q/E58M/R113T/M115L/S117A/G119K)-Fc
B2: IL-2(R38D/K43E/E61R)/PD-L2-Fc immunomodulatory molecule (Fc fusion)
chain 1: LFTVTVPKELYIIEHGSNVTLECNFDTGSHVNLGAITASLQKVENDTSPHRERATLLEEQLPLGKASFHIPQVQVRDEGQYQCIIIYGVAWDYKYLTLKVKASYRKINTHILKVPETDEVELTCQATGYPLAEVSWPNVSVPANTSHSRTPEGLYQVTSVLRLKPPPGRNFSCVFWNTHVRELTLASIDLQSQMEPRTHPTGGGGSAPTSSSTKKTQLQLEHLLLDLQMILNGINNYKNPKLTDMLTFEFYMPKKATELKHLQCLERELKPLEEVLNLAQSKNFHLRPRDLISNINVIVLELKGSETTFMCEYADETATIVEFLNRWITFCQSIISTLTDKTHTCPPCPAPEDEGGPSVFLFPPKPKDTLMISRTPEVTCVVVDVSHEDPEVKFNWYVDGVEVHNAKTKPREEQYNSTYRVVSVLTVLHQDWLNGKEYKCKVSNKALPAPIEKTISKAKGQPREPQVYVYPPSREEMTKNQVSLTCLVKGFYPSDIAVEWESNGQPENNYKTTPPVLDEDGSFALVSKLTVDKSRWQQGNVFSCSVMHEALHNHYTQKSLSLSPGK
chain 2: LFTVTVPKELYIIEHGSNVTLECNFDTGSHVNLGAITASLQKVENDTSPHRERATLLEEQLPLGKASFHIPQVQVRDEGQYQCIIIYGVAWDYKYLTLKVKASYRKINTHILKVPETDEVELTCQATGYPLAEVSWPNVSVPANTSHSRTPEGLYQVTSVLRLKPPPGRNFSCVFWNTHVRELTLASIDLQSQMEPRTHPTGGGGSDKTHTCPPCPAPEKKGGPSVFLFPPKPKDTLMISRTPEVTCVVVDVSHEDPEVKFNWYVDGVEVHNAKTKPREEQYNSTYRVVSVLTVLHQDWLNGKEYKCKVSNKALPAPIEKTISKAKGQPREPQVYVLPPSREEMTKNQVSLLCLVKGFYPSDIAVEWESNGQPENRYMTWPPVLDSDGSFFLYSKLTVDKSRWQQGNVFSCSVMHEALHNHYTQKSLSLSPGK
notes: also called ligand-IL-2 mutant-PD-L2-Fc; IW-#11

Legend:
[1] = target: T3, human PD-1 on cells (HEK-PD-1 reporter cells; activated PBMC) (human, UniProt Q15116 25-288); assay: cell-based or functional assay
[2] = target: human IL-12 receptor complex (IL-12Rβ1 and IL-12Rβ2) (human, UniProt P42701 24-662; Q99665 24-862); assay: cell-based or functional assay
[3] = target: T1, human IL-2 receptor (IL-2Rα, IL-2Rβ, …); assay: cell-based or functional assay
human PD-1 = target: T4, human PD-1 (human, UniProt Q15116 25-167, limits assumed); assay: rounded restatement of Tables 14 and 15
T4 construct: also called hPD-1

mouse PD-1 [4] = target: T2, mouse PD-1; assay: rounded restatement of Tables 14 and 15
mouse PD-1 [5] = target: T2, mouse PD-1; assay: same value as Table 14 (measured in PD-L1-Fc format)
[6] = target: T3, human PD-1 on cells (HEK-PD-1 reporter …); assay: cell-based or functional assay; remark: listed apart in the source
[7] = target: T1, human IL-2 receptor (IL-2Rα, IL-2Rβ, …); assay: cell-based or functional assay; remark: listed apart in the source
[8] = target: T1, human IL-2 receptor (IL-2Rα, IL-2Rβ, …); assay: FACS on HEK-Blue IL-2 cells (IL-2 receptor, no PD-1)

T3 sequence (Q15116 25-288): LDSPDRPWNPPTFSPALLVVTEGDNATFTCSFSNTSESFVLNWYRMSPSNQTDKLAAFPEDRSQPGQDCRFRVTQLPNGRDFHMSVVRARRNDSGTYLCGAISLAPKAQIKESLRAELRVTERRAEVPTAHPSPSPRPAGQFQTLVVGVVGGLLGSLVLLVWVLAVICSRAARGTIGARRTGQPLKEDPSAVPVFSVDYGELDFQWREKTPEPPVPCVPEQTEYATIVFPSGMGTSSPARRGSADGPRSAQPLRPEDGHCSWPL
Chain of human IL-12 receptor complex (IL-12Rβ1 and IL-12Rβ2) (Q99665 24-862, chain 2 of 2, other chains not shown): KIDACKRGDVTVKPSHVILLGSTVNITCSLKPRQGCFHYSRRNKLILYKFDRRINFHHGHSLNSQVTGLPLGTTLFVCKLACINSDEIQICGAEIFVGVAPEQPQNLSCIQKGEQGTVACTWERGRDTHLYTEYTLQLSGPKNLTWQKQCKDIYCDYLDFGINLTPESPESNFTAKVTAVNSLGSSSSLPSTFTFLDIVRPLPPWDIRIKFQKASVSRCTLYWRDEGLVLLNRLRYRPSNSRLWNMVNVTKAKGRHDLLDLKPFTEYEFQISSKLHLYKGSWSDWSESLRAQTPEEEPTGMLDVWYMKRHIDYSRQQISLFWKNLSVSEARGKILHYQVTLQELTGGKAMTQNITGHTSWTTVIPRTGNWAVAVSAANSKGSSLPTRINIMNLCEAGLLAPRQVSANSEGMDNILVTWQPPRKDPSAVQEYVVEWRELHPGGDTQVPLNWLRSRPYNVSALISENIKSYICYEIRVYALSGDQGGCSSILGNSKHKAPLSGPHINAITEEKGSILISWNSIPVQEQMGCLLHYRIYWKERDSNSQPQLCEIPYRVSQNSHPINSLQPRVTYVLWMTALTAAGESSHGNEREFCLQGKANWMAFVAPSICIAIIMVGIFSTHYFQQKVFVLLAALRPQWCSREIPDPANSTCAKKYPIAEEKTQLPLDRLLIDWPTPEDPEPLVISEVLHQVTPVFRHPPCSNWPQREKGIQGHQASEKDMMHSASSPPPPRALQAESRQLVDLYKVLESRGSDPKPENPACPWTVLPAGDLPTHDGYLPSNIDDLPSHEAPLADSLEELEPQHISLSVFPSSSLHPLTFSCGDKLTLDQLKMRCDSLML
T4 sequence (Q15116 25-167 limits assumed): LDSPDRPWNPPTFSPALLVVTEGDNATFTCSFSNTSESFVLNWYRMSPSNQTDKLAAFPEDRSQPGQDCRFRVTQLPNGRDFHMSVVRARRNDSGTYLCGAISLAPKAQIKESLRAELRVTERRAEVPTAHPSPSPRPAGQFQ

Binder | IL-2 signal transduction, HEK-IL-2-PD-1 [1] [%] | IL-12 signal transduction, HEK-IL-12-PD-1 [1] [%] | IL-12 signal transduction, HEK-IL-12 [2] [%] | IL-2 signal transduction, HEK-IL-2 [3] [%] | Kd (human PD-1) [nM] | Kd (mouse PD-1 [4]) [nM] | Kd (mouse PD-1 [5]) [nM] | Percent IL-2 signal transduction (HEK-PD-1-IL-2 reporter assay) [6] [%] | Percent IL-2 signal transduction (HEK-IL-2 reporter assay) [7] [%] | binding result [8]
B1 | < 0.1 | 24 | < 0.2 | < 0.1 | ~100 | ~100 | 120 |  |  | 
B2 |  |  |  |  |  |  |  | 43.5 | 2.4 | no binding
